# Data as given in patent publication US20250206836A1 (ONA THERAPEUTICS S L, published 2025).
# Residue numbers refer to the chain shown, from its start. Numbers in names are those of the source.
# T1: Human FcγRIIb (human, UniProt P31994)
# T1 construct: soluble receptor protein; bar 7 of each group
# T1 sequence (receptor, looked up): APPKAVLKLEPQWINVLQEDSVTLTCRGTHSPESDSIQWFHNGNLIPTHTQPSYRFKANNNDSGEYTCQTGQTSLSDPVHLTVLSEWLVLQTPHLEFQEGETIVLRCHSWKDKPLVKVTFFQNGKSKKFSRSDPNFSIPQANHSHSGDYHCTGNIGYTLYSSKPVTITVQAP
# T2: Cyno FcγRIIa (Macaca fascicularis, UniProt A0A140HDN0)
# T2 construct: soluble receptor protein; bar 8 of each group
# T2 sequence (receptor): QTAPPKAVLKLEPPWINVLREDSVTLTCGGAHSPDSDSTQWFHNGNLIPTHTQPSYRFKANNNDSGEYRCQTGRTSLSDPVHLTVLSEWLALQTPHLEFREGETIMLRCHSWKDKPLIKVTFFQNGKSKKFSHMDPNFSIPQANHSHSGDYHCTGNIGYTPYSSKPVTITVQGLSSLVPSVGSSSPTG
# T3: Human FcγRIIa (131H) (human, UniProt P12318)
# T3 construct: soluble receptor protein; bar 5 of each group
# T3 sequence (receptor, looked up): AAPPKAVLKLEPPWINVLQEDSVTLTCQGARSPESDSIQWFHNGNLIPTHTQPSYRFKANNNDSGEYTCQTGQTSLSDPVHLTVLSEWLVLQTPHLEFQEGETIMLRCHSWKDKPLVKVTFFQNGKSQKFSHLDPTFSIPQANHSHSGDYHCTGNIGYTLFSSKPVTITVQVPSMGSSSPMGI
# T4: Human FcγRIIa (131R) (human, UniProt P12318)
# T4 construct: soluble receptor protein; bar 6 of each group
# T4 sequence (receptor, looked up): T3 sequence (receptor, looked up) with H132R
# T5: Cyno FcγRIIb (Macaca fascicularis, UniProt A0A140HDP4)
# T5 construct: soluble receptor protein; bar 9 of each group
# T5 sequence (receptor): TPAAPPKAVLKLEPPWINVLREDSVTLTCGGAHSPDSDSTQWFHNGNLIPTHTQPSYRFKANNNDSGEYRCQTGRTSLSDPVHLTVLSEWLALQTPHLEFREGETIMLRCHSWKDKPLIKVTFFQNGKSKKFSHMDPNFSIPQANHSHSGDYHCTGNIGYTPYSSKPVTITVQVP
# B1: 1G04 (antibody, human IgG1, kappa, L234A L235A)
# heavy: not shown
# light: SIVMTQTPKFLLVSAGDRITITCKASQSVSDDVAWYQQKPGQSPKLLIYYASNRYTGVPDRFTGSGYGTDFTFTISTVQAEDLAVYFCQQDYSSPLTFGAGTKLEIKRTVAAPSVFIFPPSDEQLKSGTASVVCLLNNFYPREAKVQWKVDNALQSGNSQESVTEQDSKDSTYSLSSTLTLSKADYEKHKVYACEVTHQGLSSPVTKSFNRGEC
# notes: Chimeric human IgG1 with L234A/L235A (LALA); variable region of ONA-0-v1; also called 01G04; 001G04; copies: 2 + 2
# B2: 1G06 (antibody, human IgG1, kappa)
# heavy: QVQLKQSGADLVRPGASVKLSCKASGYTFTDYYINWVKQRPGQGLEWIARIYPGSGNTYYNEKFKGKATLTAEKSSSTAYMQLSSLTSEDSAVYFCARGIGGGFGMDYWGQGTSVTVSSASTKGPSVFPLAPSSKSTSGGTAALGCLVKDYFPEPVTVSWNSGALTSGVHTFPAVLQSSGLYSLSSVVTVPSSSLGTQTYICNVNHKPSNTKVDKKVEPKSCDKTHTCPPCPAPESTRGPSVFLFPPKPKDTLMISRTPEVTCVVVDVSHEDPEVKFNWYVDGVEVHNAKTKPREEQYNSTYRVVSVLTVLHQDWLNGKEYKCKVSNKALPAPIEKTISKAKGQPREPQVYTLPPSRDELTKNQVSLTCLVKGFYPSDIAVEWESNGQPENNYKTTPPVLDSDGSFFLYSKLTVDKSRWQQGNVFSCSVMHEALHNHYTQKSLSLSPGK
# light: B1 light
# notes: Variable regions of 1G04 on human IgG1 with L234S, L235T, G236R (STR); also called STR; copies: 2 + 2
# B3: 26G04 (antibody, human IgG1, V domains shown)
# VH: QVQMKESGAELMKPGASVKISCKATGYIFSNYWIEWLKERPGHGLEWIGDFLPGSSSANYNEKFKGKATFTADTSSNTAYMQLSSLTSEDSAVYYCVPFTVEVTDAMDYWGQGTSVTVSS
# VL: DIVLTQSHKFMSTSVGDRVSITCKASQDVSTAVAWYQQKPGQSPKLLIYSASYRYTGVPDRFTGSGSGTDFTFTISSVQAEDLAVYYCQQHYSTPRTFGGGTKLEIK
# notes: Chimeric: mouse variable regions on human IgG1 LALA (L234A/L235A)
# B4: 31G04 (antibody, human IgG1, V domains shown)
# VH: QVQLQQSGSELRSPGSSVKLSCKDFDSEVFPIAYMSWVRQKPGHGFEWIGDILPSIGSTIYGEKFEDKATLDADTVSNTAYLELNSLTSEDSAIYYCARDYYGSSYGYFDVWGAGTTVTVPS
# VL: DIVLTQSPASLAVSLGQRATISCRASESVDSYGNSFMHWYQQKPGQPPKLLIYRASNLESGIPARFSGSGSRTDFTLTINPVEADDVATYYCQQSNEDPYTFGGGTKLEIK
# notes: as for B3
# B5: 20G04 (antibody, human IgG1, V domains shown)
# VH: QIQLVQSGPELVKPGASVKISCETSGHTFTEYTMHWVKQSHGKSLEWIGGIYPNNGATKYNQKFKGKATLTVDKSSSTAYMELRSLTSEDSAVYYCARDRYDVWFAYWGQGTLVTVSA
# VL: ETTVTQSPASLSVATGEKVTIRCITSTDIDDDMNWYQQKPGEPPKLLISEGNTLRPGVPSRFSSGGYGTDFVFTVENMLSEDVADYYCLQSDNLPLTFGAGTKLELK
# notes: as for B3
# Tests used:
# [1] = biological target: T6, human CD36 (on HEK 293 or SCC25 cells) (human, UniProt P16671 2-472); assay: cell-based or functional assay
# [2] = biological target: T6, human CD36 (on HEK 293 or SCC25 cells); assay: cell-based or functional assay; remark: listed apart in the source
# [3] = biological target: T6, human CD36 (on HEK 293 or SCC25 cells); assay: cell-based or functional assay; remark: listed apart in the source
# [4] = biological target: T6, human CD36 (on HEK 293 or SCC25 cells); assay: FACS, SCC25 cells stably expressing human CD36
# Method: SCC25 cells were treated with 10-fold serial dilution of each antibody (5 dilutions starting at 100 nM). After incubation with the cells, an anti-human fluorescently labelled antibody was added to the cell media, allowed to incubate further, and the unbound antibody was washed off of the cells. Subsequently, the cells were subjected to FACS analysis to determine antibody binding to the cells. The results were fitted to a sigmoidal titration curve. Using a nonlinear regression model, the EC₅₀ values for each antibody were calculated from the GeoMFI and MFI values using the log(agonist) versus response (four parameters) fitting on the data transformed according to X=Log[X] in GraphPad PRISM.
# [5] = biological target: T6, human CD36 (on HEK 293 or SCC25 cells); assay: FACS, SCC25 cells stably overexpressing human CD36
# Method: (§1) After transiently transfecting the HEK 293 cells with a CD36 expression construct, cells were treated with three-fold serial dilution of each candidate antibody (10 dilutions starting at 500 nM). […] After incubation with the cells, an anti-human fluorescently labelled antibody was added to the cell media, allowed to incubate further, and the unbound antibody was washed off of the cells. Subsequently, the cells were subjected to FACS analysis to determine antibody binding to the cells. The results were fitted to a sigmoidal titration curve. Using a nonlinear regression model, the EC₅₀ values for each antibody were calculated from the GeoMFI and MFI values using the log(agonist) versus response (four parameters) fitting on the data transformed according to X=Log[X] in GraphPad PRISM.
# [6] = biological target: T6, human CD36 (on HEK 293 or SCC25 cells); assay: FACS, HEK 293 cells transiently overexpressing CD36;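 note: antibody binding to transfected cells detected by flow cytometry with a fluorescent anti-human secondary antibody, EC50 from a four-parameter sigmoidal fit of mean fluorescence intensity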
# Method: as §1
# [7] = biological target: T7, nonhuman primate CD36 (on HEK 293 cells) (cynomolgus monkey / rhesus macaque, UniProt P16671 2-472 (human entry)); assay: as above
# T7 construct: also called non-human primate CD36 (cynomolgus)
# Method: as §1
# [8] = biological target: T8, mouse CD36 (on HEK 293 cells) (mouse, UniProt Q08857 1-472); assay: as above
# T8 construct: also called Murine CD36
# Method: as §1
# [9] = biological target: T9, human CD36 (His-tagged) (human, UniProt P16671 30-439); assay: SPR (Biacore T200), His-captured CD36, bivalent analyte model
# T9 construct: not shown: His tag
# [10] = biological target: human FcRn (human, UniProt P55899 24-297; P61769 21-119); assay: SPR at pH 5.8, antibody immobilized through its light chains, soluble human FcRn
# Method: (§2) The binding of the different Fc-formatted anti-CD36 antibodies to FcγRs and FcRn was measured by SPR by immobilizing the antibodies through their light chains. The setup for these assays orients the antibody such that the Fc domain is solvent-exposed, allowing quantification of the interaction with soluble receptor proteins. Antibodies with well-defined binding properties were included as positive/negative controls in all the assays.
# [11] = biological target: T10, human CD36 (Sino Biological) (human, UniProt P16671 30-439); assay: ELISA, plates coated with human CD36 (Sino Biological), antibody titrated, OD630nm
# T10 construct: Bought protein coated on ELISA plates
# From the text: Binding was first tested using an ELISA assay in which 96-well ELISA plates were coated with human CD36 (Sino Biological) or mouse CD36 protein.
# [12] = biological target: T11, C1q human protein (human, UniProt P02745 23-245; P02746 28-253; P02747 29-245); assay: ELISA, plates coated with the antibody, C1q human protein titrated, Mean Absorbance (OD Units)
# T11 construct: also called complement C1q protein
# Method: Binding to complement C1q protein was also measured, using a standard ELISA assay in which 96-well ELISA plates were coated with the tested antibodies and C1q human protein was added (2.5-fold serial dilution starting at 250 g/mL).
# [13] = biological target: T1, Human FcγRIIb; assay: SPR, antibody immobilized through its light chains, soluble receptor injected; Mean Relative Response (RU)
# Method: as §2
# [14] = biological target: T2, Cyno FcγRIIa; assay: as above
# Method: as §2
# [15] = biological target: T12, Human FcγRI (human, UniProt P12314); assay: as above
# T12 construct: soluble receptor protein; bar 10 of each group
# Method: as §2
# [16] = biological target: T13, Human FcγRIIIa (158F) (human, UniProt P08637); assay: as above
# T13 construct: soluble receptor protein; bar 1 of each group
# Method: as §2
# [17] = biological target: T14, Human FcγRIIIa (158V) (human, UniProt P08637); assay: as above
# T14 construct: soluble receptor protein; bar 2 of each group
# Method: as §2
# [18] = biological target: T15, Human FcγRIIIb (human, UniProt O75015); assay: as above
# T15 construct: soluble receptor protein; bar 3 of each group
# Method: as §2
# [19] = biological target: T16, Cyno FcγRIII (cynomolgus monkey, UniProt Q8SPW2); assay: as above
# T16 construct: soluble receptor protein; bar 4 of each group
# Method: as §2
# [20] = biological target: T3, Human FcγRIIa (131H); assay: as above
# Method: as §2
# [21] = biological target: T4, Human FcγRIIa (131R); assay: as above
# Method: as §2
# [22] = biological target: T5, Cyno FcγRIIb; assay: as above
# Method: as §2
# [23] = biological target: T7, nonhuman primate CD36 (on HEK 293 cells); assay: FACS, HEK 293 cells transiently overexpressing CD36; remark: listed apart in the source;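 for EC50: antibody binding to transfected cells detected by flow cytometry with a fluorescent anti-human secondary antibody, EC50 from a four-parameter sigmoidal fit of mean fluorescence intensity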
# Method: as §1
# [24] = biological target: T17, purified biotin-tagged human CD36 (human, UniProt P16671 30-439, limits assumed, biotin tag, site not stated); assay: AlphaScreen competition; competitor 1G04 on acceptor beads;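 note: streptavidin donor beads excited at 680 nm release singlet oxygen, and the light signal needs a nearby acceptor bead, with 30 min donor-bead incubation at 25 °C in the dark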
# [25] = biological target: T17, purified biotin-tagged human CD36; assay: AlphaScreen competition; competitor FA6-152 on acceptor beads
# Method: This was done using the AlphaScreen® bead-based microplate assay. […] AlphaLISA® Streptavidin Donor Beads were then added and the mix incubated for 30 min at 25° C. in the dark. The donor bead contains a photosensitizer, which upon excitation by light at 680 nm, converts oxygen (O₂) into an excited form, singlet oxygen. Singlet oxygen molecules have a reduced lifetime (4 microseconds half-life) and can diffuse approximately 200 nm in solution before falling back to ground state. In the absence of acceptor beads, the singlet oxygen molecules fall back to ground state without producing any light signal.
# [26] = biological target: T6, human CD36 (on HEK 293 or SCC25 cells); assay: FACS, HEK 293 cells
# Throughout, for Percent Fatty Acid Uptake Inhibition: test concentration or dose not given here.
# T8 sequence (Q08857 whole entry): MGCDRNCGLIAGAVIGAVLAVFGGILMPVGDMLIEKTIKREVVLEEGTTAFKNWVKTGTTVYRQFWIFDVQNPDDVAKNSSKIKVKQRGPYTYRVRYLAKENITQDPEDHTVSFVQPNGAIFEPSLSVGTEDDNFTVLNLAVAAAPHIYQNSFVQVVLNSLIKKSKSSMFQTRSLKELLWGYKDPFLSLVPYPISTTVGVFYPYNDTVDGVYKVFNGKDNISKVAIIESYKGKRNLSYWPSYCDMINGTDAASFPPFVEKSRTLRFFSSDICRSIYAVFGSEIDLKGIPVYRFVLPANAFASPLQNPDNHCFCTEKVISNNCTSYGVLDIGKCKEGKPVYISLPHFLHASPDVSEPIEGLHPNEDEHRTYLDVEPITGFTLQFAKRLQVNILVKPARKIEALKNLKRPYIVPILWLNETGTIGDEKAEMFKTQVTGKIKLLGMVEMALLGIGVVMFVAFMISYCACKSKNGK
# T7 sequence (P16671 other isoform, or with tags, fused parts or gaps limits assumed): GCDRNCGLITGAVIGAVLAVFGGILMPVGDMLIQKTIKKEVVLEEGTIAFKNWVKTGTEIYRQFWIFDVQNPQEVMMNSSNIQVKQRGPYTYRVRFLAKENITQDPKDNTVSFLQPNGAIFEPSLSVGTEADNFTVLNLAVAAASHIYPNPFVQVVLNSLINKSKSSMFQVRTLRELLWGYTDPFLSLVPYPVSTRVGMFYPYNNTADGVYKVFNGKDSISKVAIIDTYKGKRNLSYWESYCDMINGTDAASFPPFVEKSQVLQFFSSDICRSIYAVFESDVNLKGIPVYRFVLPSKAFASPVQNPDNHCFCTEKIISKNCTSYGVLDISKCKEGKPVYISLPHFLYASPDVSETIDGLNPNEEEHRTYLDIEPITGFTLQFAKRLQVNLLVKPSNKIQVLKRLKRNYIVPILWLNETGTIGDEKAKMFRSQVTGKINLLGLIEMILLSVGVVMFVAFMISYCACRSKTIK
# T6 sequence (P16671 2-472 limits assumed): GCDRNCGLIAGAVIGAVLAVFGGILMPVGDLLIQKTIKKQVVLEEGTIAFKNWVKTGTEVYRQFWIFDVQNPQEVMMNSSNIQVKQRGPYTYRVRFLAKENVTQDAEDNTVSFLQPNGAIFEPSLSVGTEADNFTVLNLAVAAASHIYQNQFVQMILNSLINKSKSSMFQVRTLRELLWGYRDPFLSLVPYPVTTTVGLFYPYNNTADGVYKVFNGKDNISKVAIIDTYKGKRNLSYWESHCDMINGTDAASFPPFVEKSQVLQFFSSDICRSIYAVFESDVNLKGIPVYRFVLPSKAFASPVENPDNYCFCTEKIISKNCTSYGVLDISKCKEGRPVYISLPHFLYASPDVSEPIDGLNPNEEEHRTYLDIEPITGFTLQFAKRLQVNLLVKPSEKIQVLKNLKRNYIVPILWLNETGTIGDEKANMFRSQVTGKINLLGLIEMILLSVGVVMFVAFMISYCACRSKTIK
# T9 sequence (P16671 30-439 limits assumed): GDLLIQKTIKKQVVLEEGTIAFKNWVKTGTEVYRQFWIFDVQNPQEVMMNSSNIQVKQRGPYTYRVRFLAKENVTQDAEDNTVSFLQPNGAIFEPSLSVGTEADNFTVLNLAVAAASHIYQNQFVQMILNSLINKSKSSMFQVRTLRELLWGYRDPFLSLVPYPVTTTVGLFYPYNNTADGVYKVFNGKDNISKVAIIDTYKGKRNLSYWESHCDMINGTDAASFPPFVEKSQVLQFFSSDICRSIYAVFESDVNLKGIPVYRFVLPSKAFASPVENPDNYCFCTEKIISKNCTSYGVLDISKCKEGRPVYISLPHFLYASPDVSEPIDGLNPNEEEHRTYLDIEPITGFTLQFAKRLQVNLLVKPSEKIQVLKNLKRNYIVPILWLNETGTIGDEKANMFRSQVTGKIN
# T17 sequence (P16671 30-439 limits assumed): as above
# T13 sequence (P08637 17-208 limits assumed): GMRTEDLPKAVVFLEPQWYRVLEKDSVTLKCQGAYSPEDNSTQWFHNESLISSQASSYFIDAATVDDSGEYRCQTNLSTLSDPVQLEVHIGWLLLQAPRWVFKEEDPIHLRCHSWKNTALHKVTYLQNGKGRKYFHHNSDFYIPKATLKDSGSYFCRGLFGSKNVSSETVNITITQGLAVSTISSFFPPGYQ
# T11 sequence (P02745 23-245 limits assumed, chain 1 of 3): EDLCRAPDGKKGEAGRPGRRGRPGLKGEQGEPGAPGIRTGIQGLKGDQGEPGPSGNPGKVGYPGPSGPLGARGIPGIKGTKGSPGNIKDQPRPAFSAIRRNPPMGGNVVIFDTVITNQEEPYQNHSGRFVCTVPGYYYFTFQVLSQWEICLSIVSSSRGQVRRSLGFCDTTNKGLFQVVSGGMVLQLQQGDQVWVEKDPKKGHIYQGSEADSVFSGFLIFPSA
# T11 sequence (P02746 28-253 limits assumed, chain 2 of 3): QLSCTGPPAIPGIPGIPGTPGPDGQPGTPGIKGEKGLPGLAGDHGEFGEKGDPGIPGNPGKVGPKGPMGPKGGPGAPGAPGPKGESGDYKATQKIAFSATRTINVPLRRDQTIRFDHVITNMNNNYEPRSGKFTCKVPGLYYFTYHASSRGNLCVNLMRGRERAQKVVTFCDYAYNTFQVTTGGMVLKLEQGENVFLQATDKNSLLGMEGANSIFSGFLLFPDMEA
# T11 sequence (P02747 29-245 limits assumed, chain 3 of 3): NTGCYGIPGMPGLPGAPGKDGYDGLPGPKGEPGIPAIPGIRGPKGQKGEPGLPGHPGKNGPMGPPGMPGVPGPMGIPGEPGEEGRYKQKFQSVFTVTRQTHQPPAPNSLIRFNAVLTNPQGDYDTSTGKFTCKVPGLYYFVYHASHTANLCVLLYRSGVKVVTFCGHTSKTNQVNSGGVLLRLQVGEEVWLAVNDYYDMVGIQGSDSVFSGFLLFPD
# T14 sequence (P08637 17-208 F176V limits assumed): as the sequence (P08637 17-208 limits assumed) above, with F160V counted along it
# T12 sequence (P12314 16-288 limits assumed): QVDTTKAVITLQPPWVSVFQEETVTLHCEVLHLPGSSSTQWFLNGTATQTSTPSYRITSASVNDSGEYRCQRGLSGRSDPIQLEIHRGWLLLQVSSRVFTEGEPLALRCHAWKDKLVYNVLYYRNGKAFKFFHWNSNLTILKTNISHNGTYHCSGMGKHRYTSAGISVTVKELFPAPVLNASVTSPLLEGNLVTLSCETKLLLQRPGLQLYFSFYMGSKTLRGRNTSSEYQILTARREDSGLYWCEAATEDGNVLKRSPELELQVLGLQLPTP
# T10 sequence (P16671 30-439 limits assumed): as the sequence (P16671 30-439 limits assumed) above
# human FcRn, sequence (P55899 24-297 limits assumed, chain 1 of 2): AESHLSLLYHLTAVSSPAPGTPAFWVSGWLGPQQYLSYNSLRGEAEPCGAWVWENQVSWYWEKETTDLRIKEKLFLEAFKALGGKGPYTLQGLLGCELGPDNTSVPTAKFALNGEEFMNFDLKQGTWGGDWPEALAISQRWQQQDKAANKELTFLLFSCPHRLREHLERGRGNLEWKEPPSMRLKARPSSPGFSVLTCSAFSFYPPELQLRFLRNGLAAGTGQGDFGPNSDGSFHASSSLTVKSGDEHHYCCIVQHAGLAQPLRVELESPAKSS
# human FcRn, sequence (P61769 21-119 limits assumed, chain 2 of 2): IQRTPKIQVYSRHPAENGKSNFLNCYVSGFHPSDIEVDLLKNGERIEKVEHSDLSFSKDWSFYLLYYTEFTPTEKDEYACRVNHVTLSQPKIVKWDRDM
# T15 sequence (O75015 17-200 limits assumed): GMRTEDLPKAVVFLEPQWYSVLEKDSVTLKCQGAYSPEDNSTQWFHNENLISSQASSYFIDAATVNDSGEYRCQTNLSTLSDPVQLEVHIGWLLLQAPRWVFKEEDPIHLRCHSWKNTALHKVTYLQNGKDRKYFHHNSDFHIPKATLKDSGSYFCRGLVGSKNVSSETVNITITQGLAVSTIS
# T16 sequence (Q8SPW2 17-208 limits assumed): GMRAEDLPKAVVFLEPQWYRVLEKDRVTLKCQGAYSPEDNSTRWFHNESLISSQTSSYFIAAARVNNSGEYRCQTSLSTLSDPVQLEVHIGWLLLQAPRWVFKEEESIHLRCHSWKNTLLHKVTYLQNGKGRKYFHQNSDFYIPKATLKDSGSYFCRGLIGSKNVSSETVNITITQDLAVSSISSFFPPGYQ
Binder,EC50 [4],EC50 [6],EC50 [7],EC50 [8],Kd [10],EC50 (read off the curve) [11],binding result [12],binding result [13],binding result [14],binding result [15],binding result [16],binding result [17],binding result [18],binding result [19],binding result [20],binding result [21],binding result [23],EC50 [24],EC50 [25],other results
B1,0.42 nM,2.07 nM,1.23 nM,1.99 nM,676 nM,~0.1 nM,no binding (tested: 250 µg/mL C1q (highest point)),binds,no binding,binds,binds,binds,binds,binds,binds,binds,–,–,–,"Percent Fatty Acid Uptake Inhibition [1]: 30.5%; IC50 of fatty acid uptake inhibition (BODIPY FL C16, HEK hCD36 cells) [2]: 1 nM; IC50 of oxLDL uptake inhibition (DiI-oxLDL, SCC25 cells) [3]: 0.36 nM; EC50 [5]: 0.34 nM; Kd [9]: 3.2 nM; koff [9]: 0.0094 s⁻¹; kon [9]: 2.9e+06 M⁻¹ s⁻¹"
B2,0.38 nM,–,–,–,629 nM,~0.1 nM,no binding (tested: 250 µg/mL C1q (highest point)),no binding,no binding,no binding,binds,binds,binds,no binding,no binding,no binding,–,–,–,binding result [22]: no binding
B3,–,0.72 nM,–,158 nM,–,–,–,–,–,–,–,–,–,–,–,–,no binding (tested: 500 nM top concentration),0.46 nM,2.66 nM,–
B4,–,–,–,–,–,–,–,–,–,–,–,–,–,–,–,–,no binding (tested: 500 nM top concentration),0.27 nM,2.5 nM,–
B5,–,–,5.03 nM,18.2 nM,–,–,–,–,–,–,–,–,–,–,–,–,–,–,–,binding result [26]: binds
